From the supplement of paper PMC5998384

Columns and labels:
HeLa Kyoto [1] = assay: solubility in G1/S (NP-40 vs SDS abundance) (log2 ratio); higher = more soluble; settings: cell cycle stage: G1/S
HeLa Kyoto [2] = assay: solubility change mitosis vs G1/S (difference of NP-40 vs SDS log2 ratios) (log2 ratio difference); higher = more soluble in mitosis
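Wherever solubility change mitosis vs G1/S (difference of NP-40 vs SDS log2 ratios) is given: synchronized HeLa Kyoto cells (double thymidine block for G1/S, nocodazole release for mitosis), protein amounts in NP-40 versus SDS lysates quantified by mass spectrometry, three biological replicates.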
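Wherever solubility in G1/S (NP-40 vs SDS abundance) is given: HeLa Kyoto cells arrested at G1/S by double thymidine block, proteins quantified by TMT10plex mass spectrometry in mild NP-40 versus SDS extracts, three biological replicates.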

Sequence | solubility in G1/S (log2) (HeLa Kyoto [1]) | solubility change mitosis (log2) (HeLa Kyoto [2])
MWSLTASEGESTTAHFFLGAGDEGLGTRGIGMRPEESDSELLEDEEDEVPPEPQIIVGICAMTKKSKSKPMTQILERLCRFDYLTVVILGEDVILNEPVENWPSCHCLISFHSKGFPLDKAVAYSKLRNPFLINDLAMQYYIQDRREVYRILQEEGIDLPRYAVLNRDPARPEECNLIEGEDQVEVNGAVFPKPFVEKPVSAEDHNVYIYYPSSAGGGSQRLFRKIGSRSSVYSPESSVRKTGSYIYEEFMPTDGTDVKVYTVGPDYAHAEARKSPALDGKVERDSEGKEIRYPVMLTAMEKLVARKVCVAFKQTVCGFDLLRANGHSFVCDVNGFSFVKNSMKYYDDCAKILGNTIMRELAPQFQIPWSIPTEAEDIPIVPTTSGTMMELRCVIAIIRHGDRTPKQKMKMEVKHPRFFALFEKHGGYKTGKLKLKRPEQLQEVLDITRLLLAELEKEPGGEIEEKTGKLEQLKSVLEMYGHFSGINRKVQLTYYPHGVKASNEGQDPQRETLAPSLLLVLKWGGELTPAGRVQAEELGRAFRCMYPGGQGDYAGFPGCGLLRLHSTFRHDLKIYASDEGRVQMTAAAFAKGLLALEGELTPILVQMVKSANMNGLLDSDGDSLSSCQHRVKARLHHILQQDAPFGPEDYDQLAPTRSTSLLNSMTIIQNPVKVCDQVFALIENLTHQIRERMQDPRSVDLQLYHSETLELMLQRWSKLERDFRQKSGRYDISKIPDIYDCVKYDVQHNGSLGLQGTAELLRLSKALADVVIPQEYGISREEKLEIAVGFCLPLLRKILLDLQRTHEDESVNKLHPLCYLRYSRGVLSPGRHVRTRLYFTSESHVHSLLSVFRYGGLLDETQDAQWQRALDYLSAISELNYMTQIVIMLYEDNTQDPLSEERFHVELHFSPGVKGVEEEGSAPAGCGFRPASSENEEMKTNQGSMENLCPGKASDEPDRALQTSPQPPEGPGLPRRSPLIRNRKAGSMEVLSETSSSRPGGYRLFSSSRPPTEMKQSGLGSQCTGLFSTTVLGGSSSAPNLQDYARSHGKKLPPASLKHRDELLFVPAVKRFSVSFAKHPTNGFEGCSMVPTIYPLETLHNALSLRQVSEFLSRVCQRHTDAQAQASAALFDSMHSSQASDNPFSPPRTLHSPPLQLQQRSEKPPWYSSGPSSTVSSAGPSSPTTVDGNSQFGFSDQPSLNSHVAEEHQGLGLLQETPGSGAQELSIEGEQELFEPNQSPQVPPMETSQPYEEVSQPCQEVPDISQPCQDISEALSQPCQKVPDISQQCQENHDNGNHTCQEVPHISQPCQKSSQLCQKVSEEVCQLCLENSEEVSQPCQGVSVEVGKLVHKFHVGVGSLVQETLVEVGSPAEEIPEEVIQPYQEFSVEVGRLAQETSAINLLSQGIPEIDKPSQEFPEEIDLQAQEVPEEIN [PPIP5K1] | -0.000791 | -0.212
MAAIAASEVLVDSAEEGSLAAAAELAAQKREQRLRKFRELHLMRNEARKLNHQEVVEEDKRLKLPANWEAKKARLEWELKEEEKKKECAARGEDYEKVKLLEISAEDAERWERKKKRKNPDLGFSDYAAAQLRQYHRLTKQIKPDMETYERLREKHGEEFFPTSNSLLHGTHVPSTEEIDRMVIDLEKQIEKRDKYSRRRPYNDDADIDYINERNAKFNKKAERFYGKYTAEIKQNLERGTAV [SYF2] | 0.12 | 0.188
MSANNSPPSAQKSVLPTAIPAVLPAASPCSSPKTGLSARLSNGSFSAPSLTNSRGSVHTVSFLLQIGLTRESVTIEAQELSLSAVKDLVCSIVYQKFPECGFFGMYDKILLFRHDMNSENILQLITSADEIHEGDLVEVVLSALATVEDFQIRPHTLYVHSYKAPTFCDYCGEMLWGLVRQGLKCEGCGLNYHKRCAFKIPNNCSGVRKRRLSNVSLPGPGLSVPRPLQPEYVALPSEESHVHQEPSKRIPSWSGRPIWMEKMVMCRVKVPHTFAVHSYTRPTICQYCKRLLKGLFRQGMQCKDCKFNCHKRCASKVPRDCLGEVTFNGEPSSLGTDTDIPMDIDNNDINSDSSRGLDDTEEPSPPEDKMFFLDPSDLDVERDEEAVKTISPSTSNNIPLMRVVQSIKHTKRKSSTMVKEGWMVHYTSRDNLRKRHYWRLDSKCLTLFQNESGSKYYKEIPLSEILRISSPRDFTNISQGSNPHCFEIITDTMVYFVGENNGDSSHNPVLAATGVGLDVAQSWEKAIRQALMPVTPQASVCTSPGQGKDHKDLSTSISVSNCQIQENVDISTVYQIFADEVLGSGQFGIVYGGKHRKTGRDVAIKVIDKMRFPTKQESQLRNEVAILQNLHHPGIVNLECMFETPERVFVVMEKLHGDMLEMILSSEKSRLPERITKFMVTQILVALRNLHFKNIVHCDLKPENVLLASAEPFPQVKLCDFGFARIIGEKSFRRSVVGTPAYLAPEVLRSKGYNRSLDMWSVGVIIYVSLSGTFPFNEDEDINDQIQNAAFMYPPNPWREISGEAIDLINNLLQVKMRKRYSVDKSLSHPWLQDYQTWLDLREFETRIGERYITHESDDARWEIHAYTHNLVYPKHFIMAPNPDDMEEDP [PRKD3] | -0.25 | -0.119
MSGPCGEKPVLEASPTMSLWEFEDSHSRQGTPRPGQELAAEEASALELQMKVDFFRKLGYSSTEIHSVLQKLGVQADTNTVLGELVKHGTATERERQTSPDPCPQLPLVPRGGGTPKAPNLEPPLPEEEKEGSDLRPVVIDGSNVAMSHGNKEVFSCRGILLAVNWFLERGHTDITVFVPSWRKEQPRPDVPITDQHILRELEKKKILVFTPSRRVGGKRVVCYDDRFIVKLAYESDGIVVSNDTYRDLQGERQEWKRFIEERLLMYSFVNDKFMPPDDPLGRHGPSLDNFLRKKPLTLEHRKQPCPYGRKCTYGIKCRFFHPERPSCPQRSVADELRANALLSPPRAPSKDKNGRRPSPSSQSSSLLTESEQCSLDGKKLGAQASPGSRQEGLTQTYAPSGRSLAPSGGSGSSFGPTDWLPQTLDSLPYVSQDCLDSGIGSLESQMSELWGVRGGGPGEPGPPRAPYTGYSPYGSELPATAAFSAFGRAMGAGHFSVPADYPPAPPAFPPREYWSEPYPLPPPTSVLQEPPVQSPGAGRSPWGRAGSLAKEQASVYTKLCGVFPPHLVEAVMGRFPQLLDPQQLAAEILSYKSQHPSE [ZC3H12A] | 0.15 | -0.0716
MALKAEGAALDCFEVTLKCEEGEDEEEAMVVAVIPRPEPMLRVTQQEKTPPPRPSPLEAGSDGCEEPKQQVSWEQEFLVGSSPGGSGRALCMVCGAEIRAPSADTARSHILEQHPHTLDLSPSEKSNILEAWSEGVALLQDVRAEQPSPPNSDSGQDAHPDPDANPDAARMPAEIVVLLDSEDNPSLPKRSRPRGLRPLELPAVPATEPGNKKPRGQRWKEPPGEEPVRKKRGRPMTKNLDPDPEPPSPDSPTETFAAPAEVRHFTDGSFPAGFVLQLFSHTQLRGPDSKDSPKDREVAEGGLPRAESPSPAPPPGLRGTLDLQVIRVRMEEPPAVSLLQDWSRHPQGTKRVGAGDTSDWPTVLSESSTTVAGKPEKGNGV [C11ORF84] | 0.38 | 0.023
MGLYGQACPSVTSLRMTSELESSLTSMDWLPQLTMRAAIQKSDATQNAHGTGISKKNALLDPNTTLDQEEVQQHKDGKPPYSYASLITFAINSSPKKKMTLSEIYQWICDNFPYYREAGSGWKNSIRHNLSLNKCFLKVPRSKDDPGKGSYWAIDTNPKEDVLPTRPKKRARSVERASTPYSIDSDSLGMECIISGSASPTLAINTVTNKVTLYNTDQDGSDSPRSSLNNSLSDQSLASVNLNSVGSVHSYTPVTSHPESVSQSLTPQQQPQYNLPERDKQLLFSEYNFEDLSASFRSLYKSVFEQSLSQQGLMNIPSESSQQSHTSCTYQHSPSSTVSTHPHSNQSSLSNSHGSGLNTTGSNSVAQVSLSHPQMHTQPSPHPPHRPHGLPQHPQRSPHPAPHPQQHSQLQSPHPQHPSPHQHIQHHPNHQHQTLTHQAPPPPQQVSCNSGVSNDWYATLDMLKESCRIASSVNWSDVDLSQFQGLMESMRQADLKNWSLDQVQFADLCSSLNQFFTQTGLIHSQSNVQQNVCHGAMHPTKPSQHIGTGNLYIDSRQNLPPSVMPPPGYPHIPQALSTPGTTMAGHHRAMNQQHMMPSQAFQMRRSLPPDDIQDDFDWDSIV [FOXJ3] | 0.664 | 0.0825
MNVTSIALRAETWLLAAWHVKVPPMWLEACINWIQEENNNVNLSQAQMNKQVFEQWLLTDLRDLEHPLLPDGILEIPKGELNGFYALQINSLVDVSQPAYSQIQKLRGKNTTNDLVTAEAQVTPKPWEAKPSRMLMLQLTDGIVQIQGMEYQPIPILHSDLPPGTKILIYGNISFRLGVLLLKPENVKVLGGEVDALLEEYAQEKVLARLIGEPDLVVSVIPNNSNENIPRVTDVLDPALGPSDEELLASLDENDELTANNDTSSERCFTTGSSSNTIPTRQSSFEPEFVISPRPKEEPSNLSIHVMDGELDDFSLEEALLLEETVQKEQMETKELQPLTFNRNADRSIERFSHNPNTTNNFSLTCKNGNNNWSEKNVSEQMTNEDKSFGCPSVRDQNRSIFSVHCNVPLAHDFTNKEKNLETDNKIKQTSSSDSHSLNNKILNREVVNYVQKRNSQISNENDCNLQSCSLRSSENSINLSIAMDLYSPPFVYLSVLMASKPKEVTTVKVKAFIVTLTGNLSSSGGIWSITAKVSDGTAYLDVDFVDEILTSLIGFSVPEMKQSKKDPLQYQKFLEGLQKCQRDLIDLCCLMTISFNPSLSKAMVLALQDVNMEHLENLKKRLNK [RMI1] | -0.0709 | 0.0277
MNPLTKVKLINELNEREVQLGVADKVSWHSEYKDSAWIFLGGLPYELTEGDIICVFSQYGEIVNINLVRDKKTGKSKGFCFLCYEDQRSTILAVDNFNGIKIKGRTIRVDHVSNYRAPKDSEEIDDVTRQLQEKGCGARTPSPSLSESSEDEKPTKKHKKDKKEKKKKKKEKEKADREVQAEQPSSSSPRRKTVKEKDDTGPKKHSSKNSERAQKSEPREGQKLPKSRTAYSGGAEDLERELKKEKPKHEHKSSSRREAREEKTRIRDRGRSSDAHSSWYNGRSEGRSYRSRSRSRDKSHRHKRARRSRERESSNPSDRWRH [RBMX2] | -1.17 | 0.59
MRFAWTVLLLGPLQLCALVHCAPPAAGQQQPPREPPAAPGAWRQQIQWENNGQVFSLLSLGSQYQPQRRRDPGAAVPGAANASAQQPRTPILLIRDNRTAAARTRTAGSSGVTAGRPRPTARHWFQAGYSTSRAREAGASRAENQTAPGEVPALSNLRPPSRVDGMVGDDPYNPYKYSDDNPYYNYYDTYERPRPGGRYRPGYGTGYFQYGLPDLVADPYYIQASTYVQKMSMYNLRCAAEENCLASTAYRADVRDYDHRVLLRFPQRVKNQGTSDFLPSRPRYSWEWHSCHQHYHSMDEFSHYDLLDANTQRRVAEGHKASFCLEDTSCDYGYHRRFACTAHTQGLSPGCYDTYGADIDCQWIDITDVKPGNYILKVSVNPSYLVPESDYTNNVVRCDIRYTGHHAYASGCTISPY [LOX] | -0.354 | 0.257
MALVTVSRSPPGSGASTPVGPWDQAVQRRSRLQRRQSFAVLRGAVLGLQDGGDNDDAAEASSEPTEKAPSEEELHGDQTDFGQGSQSPQKQEEQRQHLHLMVQLLRPQDDIRLAAQLEAPRPPRLRYLLVVSTREGEGLSQDETVLLGVDFPDSSSPSCTLGLVLPLWSDTQVYLDGDGGFSVTSGGQSRIFKPISIQTMWATLQVLHQACEAALGSGLVPGGSALTWASHYQERLNSEQSCLNEWTAMADLESLRPPSAEPGGSSEQEQMEQAIRAELWKVLDVSDLESVTSKEIRQALELRLGLPLQQYRDFIDNQMLLLVAQRDRASRIFPHLYLGSEWNAANLEELQRNRVTHILNMAREIDNFYPERFTYHNVRLWDEESAQLLPHWKETHRFIEAARAQGTHVLVHCKMGVSRSAATVLAYAMKQYECSLEQALRHVQELRPIARPNPGFLRQLQIYQGILTASRQSHVWEQKVGGVSPEEHPAPEVSTPFPPLPPEPEGGGEEKVVGMEESQAAPKEEPGPRPRINLRGVMRSISLLEPSLELESTSETSDMPEVFSSHESSHEEPLQPFPQLARTKGGQQVDRGPQPALKSRQSVVTLQGSAVVANRTQAFQEQEQGQGQGQGEPCISSTPRFRKVVRQASVHDSGEEGEA [SSH3] | 0.212 | -0.161
